We go through four molecules from US20260258394A1, “PLANT ENZYMES WITH IMPROVED ACTIVITY” (MAX-PLANCK-GESELLSCHAFT ZUR FÖRDERUNG DER WISSENSCHAFTEN …, priority 2023, published 2026).

For series [1], the system named is Glycolyl-CoA Carboxylase GCC M5 (Methylorubrum extorquens propionyl-CoA carboxylase variant L100S, Y143H, D407I, I450V, W502R; β-subunit SEQ ID NO: 1 …). The settings on record: cited from earlier work.
In series [2] the target is T1, Glycolyl-CoA Carboxylase GCC M5 variant G20R (Methylorubrum extorquens propionyl-CoA carboxylase variant G20R, L100S, Y143H, D407I, I450V, W502R); β-subunit SEQ (Methylorubrum extorquens, UniProt C5AP75, D407I/G20R/I450V/L100S/W502R/Y143H).
T1 construct: overexpressed in E. coli BL21-birA with M. extorquens biotin ligase
T1 sequence (C5AP75 1-510 G20R/L100S/Y143H/D407I/I450V/W502R): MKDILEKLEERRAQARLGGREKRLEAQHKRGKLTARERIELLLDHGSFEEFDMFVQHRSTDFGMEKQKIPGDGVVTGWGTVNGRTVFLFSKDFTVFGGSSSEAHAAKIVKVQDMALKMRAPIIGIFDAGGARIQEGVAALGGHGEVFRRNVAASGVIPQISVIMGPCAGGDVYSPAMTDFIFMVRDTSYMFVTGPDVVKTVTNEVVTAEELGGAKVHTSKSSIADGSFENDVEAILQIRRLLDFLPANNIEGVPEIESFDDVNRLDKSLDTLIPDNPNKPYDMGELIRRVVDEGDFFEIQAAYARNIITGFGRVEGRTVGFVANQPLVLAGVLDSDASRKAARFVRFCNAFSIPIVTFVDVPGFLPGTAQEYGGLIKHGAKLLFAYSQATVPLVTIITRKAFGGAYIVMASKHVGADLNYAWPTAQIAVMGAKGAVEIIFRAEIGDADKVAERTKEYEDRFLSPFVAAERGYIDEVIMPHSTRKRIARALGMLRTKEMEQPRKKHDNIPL
T1 sequence (C5AWU5 1-667 partner): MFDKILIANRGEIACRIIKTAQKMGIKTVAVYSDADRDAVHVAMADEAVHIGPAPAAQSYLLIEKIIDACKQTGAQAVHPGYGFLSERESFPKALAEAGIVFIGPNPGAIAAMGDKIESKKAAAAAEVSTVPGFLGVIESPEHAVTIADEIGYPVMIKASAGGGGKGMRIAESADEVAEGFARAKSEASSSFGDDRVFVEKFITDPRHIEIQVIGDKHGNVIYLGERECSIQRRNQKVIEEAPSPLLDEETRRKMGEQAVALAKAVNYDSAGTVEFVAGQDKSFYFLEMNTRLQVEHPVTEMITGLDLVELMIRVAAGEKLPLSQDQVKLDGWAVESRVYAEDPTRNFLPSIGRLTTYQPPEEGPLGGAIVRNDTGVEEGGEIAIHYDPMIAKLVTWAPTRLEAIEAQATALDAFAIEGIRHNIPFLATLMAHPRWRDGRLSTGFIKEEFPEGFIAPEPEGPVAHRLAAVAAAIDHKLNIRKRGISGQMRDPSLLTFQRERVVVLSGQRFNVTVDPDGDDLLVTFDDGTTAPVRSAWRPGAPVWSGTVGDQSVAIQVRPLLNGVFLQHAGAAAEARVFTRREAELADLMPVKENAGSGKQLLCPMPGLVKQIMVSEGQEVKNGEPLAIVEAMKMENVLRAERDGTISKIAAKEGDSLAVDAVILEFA
Kind of series: Kinetic characterization of GCC M5 G20R (Vmax, kcat, App. KM) using LC-MS assays. It counts as biochemical. An excerpt:
The carboxylation activity can be measured as catalytic rate of carboxylation of glycolyl-CoA (conversion of glycolyl-CoA into tartronyl-CoA) (Scheffen, loc. cit.). Catalytic rate (kcat) is here defined as the maximum formation rate of tartronyl-CoA out of glycolyl-CoA and HCO3^−. It describes how many mol of the substrate are converted per time and per mol of enzyme. It can only be approximated as it requires 100% substrate saturation of the active sites. Therefore, turnover rates at different initial substrate concentrations can be measured to compute the catalytic rate with the Michaelis-Menten equation.

In series [3] the target is T2, GCC M5_G20R (M. extorquens) β-subunit G20R, L100S, Y143H, D407I, I450V, W502R mutations.
T2 chain: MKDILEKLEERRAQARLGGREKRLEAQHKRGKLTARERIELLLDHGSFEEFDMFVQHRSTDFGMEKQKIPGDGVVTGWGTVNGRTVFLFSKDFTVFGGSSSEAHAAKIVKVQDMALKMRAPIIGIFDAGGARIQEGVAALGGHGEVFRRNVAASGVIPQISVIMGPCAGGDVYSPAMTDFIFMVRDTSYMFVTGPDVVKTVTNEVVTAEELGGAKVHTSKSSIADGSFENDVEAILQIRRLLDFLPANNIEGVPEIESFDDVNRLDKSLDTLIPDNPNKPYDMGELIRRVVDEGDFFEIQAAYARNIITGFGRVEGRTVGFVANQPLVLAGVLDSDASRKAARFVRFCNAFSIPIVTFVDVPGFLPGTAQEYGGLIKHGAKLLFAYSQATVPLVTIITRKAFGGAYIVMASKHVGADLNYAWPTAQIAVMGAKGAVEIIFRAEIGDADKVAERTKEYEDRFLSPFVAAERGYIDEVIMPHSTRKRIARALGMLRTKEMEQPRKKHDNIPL

Substrate in series [4]: CC(=O)SCCNC(=O)CCNC(=O)[C@H](O)C(C)(C)COP(=O)(O)OP(=O)(O)OC[C@H]1O[C@@H](n2cnc3c(N)ncnc32)[C@H](O)[C@@H]1OP(=O)(O)O
Kind of series: Kinetic characterization of GCC M5 G20R (Vmax, kcat, App. KM) using LC-MS assays. In kind it is biochemical, Methylorubrum extorquens. The settings on record: other: G20R; means±s.d., n=18, nonlinear regression.

Substrate in series [5]: CC(C)(COP(=O)(O)OP(=O)(O)OC[C@H]1O[C@@H](n2cnc3c(N)ncnc32)[C@H](O)[C@@H]1OP(=O)(O)O)[C@@H](O)C(=O)NCCC(=O)NCCSC(=O)CO
The series is described as above. It counts as biochemical, Methylorubrum extorquens. The settings on record: other: G20R; means±s.d., n=18, nonlinear regression.

Substrate in series [6]: CC(=O)SCCNC(=O)CCNC(=O)[C@H](O)C(C)(C)COP(=O)(O)OP(=O)(O)OC[C@H]1O[C@@H](n2cnc3c(N)ncnc32)[C@H](O)[C@@H]1OP(=O)(O)O
Kind of series: Kinetic characterization of GCC M5 S100N (Vmax, kcat, App. KM) using LC-MS assays. As to conditions: other: S100N; means±s.d., n=18, nonlinear regression. In kind it is biochemical, Methylorubrum extorquens.

Substrate in series [7]: CC(C)(COP(=O)(O)OP(=O)(O)OC[C@H]1O[C@@H](n2cnc3c(N)ncnc32)[C@H](O)[C@@H]1OP(=O)(O)O)[C@@H](O)C(=O)NCCC(=O)NCCSC(=O)CO
The description is as above. It counts as biochemical, Methylorubrum extorquens. As to conditions: other: S100N; means±s.d., n=18, nonlinear regression.

Where [8] appears, read: means±s.d., reference Scheffen loc. cit.

For the molecule `CC(C)(COP(=O)(O)OP(=O)(O)OC[C@H]1O[C@@H](n2cnc3c(N)ncnc32)[C@H](O)[C@@H]1OP(=O)(O)O)[C@@H](O)C(=O)NCCC(=O)NCCSC(=O)CO` [Glycolyl-CoA, glycolyl-CoA], the “catalytic rate of carboxylation of glycolyl-CoA” value in series [1] (Scheffen, Nat. Catal. 4, 105-115, 2021) is 5.6 ± 0.3 s⁻¹. For the same molecule, the Michaelis-Menten constant (Km) in series [1] (means±s.d., reference Scheffen loc. cit., read-out: App. KM) is 150 ± 30 µM. For the same molecule, in series [1] (setting [8]), the Vmax is 2590 ± 130 nmol/min/mg and the kcat was 5.6 ± 0.3 s⁻¹. Moreover, the kcat/KM in series [1] (reference Scheffen loc. cit.) is 36300 s⁻¹ M⁻¹. In addition, the “Vmax, fold higher than GCC M5” value in series [2] (G20R versus GCC M5) is reported as 1.8 -fold. For the same molecule, in series [2] (G20R versus GCC M5, result in words), the “apparent KM value for glycolyl-CoA (change versus GCC M5)” value was “slightly increased”. Also, the kcat in series [2] (G20R, unit not given) was determined as 9.8±0.2.

B1: PCC WT (M. extorquens) α-subunit (protein)
chain: MFDKILIANRGEIACRIIKTAQKMGIKTVAVYSDADRDAVHVAMADEAVHIGPAPAAQSYLLIEKIIDACKQTGAQAVHPGYGFLSERESFPKALAEAGIVFIGPNPGAIAAMGDKIESKKAAAAAEVSTVPGFLGVIESPEHAVTIADEIGYPVMIKASAGGGGKGMRIAESADEVAEGFARAKSEASSSFGDDRVFVEKFITDPRHIEIQVIGDKHGNVIYLGERECSIQRRNQKVIEEAPSPLLDEETRRKMGEQAVALAKAVNYDSAGTVEFVAGQDKSFYFLEMNTRLQVEHPVTEMITGLDLVELMIRVAAGEKLPLSQDQVKLDGWAVESRVYAEDPTRNFLPSIGRLTTYQPPEEGPLGGAIVRNDTGVEEGGEIAIHYDPMIAKLVTWAPTRLEAIEAQATALDAFAIEGIRHNIPFLATLMAHPRWRDGRLSTGFIKEEFPEGFIAPEPEGPVAHRLAAVAAAIDHKLNIRKRGISGQMRDPSLLTFQRERVVVLSGQRFNVTVDPDGDDLLVTFDDGTTAPVRSAWRPGAPVWSGTVGDQSVAIQVRPLLNGVFLQHAGAAAEARVFTRREAELADLMPVKENAGSGKQLLCPMPGLVKQIMVSEGQEVKNGEPLAIVEAMKMENVLRAERDGTISKIAAKEGDSLAVDAVILEFA
Consider B1, for which, in series [3], the Specific activity (nmol min^-1 mg^-1) (nmol min^-1 mg^-1) is 2600; the Vmax [nmol min^-1 mg^-1], glycolyl-CoA (nmol min^-1 mg^-1) was determined as 4520; the kcat [s^-1], glycolyl-CoA was determined as 9.8 s⁻¹.

B2: Glycolyl-CoA Carboxylase GCC M5 variant G20R (Methylorubrum extorquens propionyl-CoA carboxylase variant G20R, L100S, Y143H, D407I, I450V, W502R; β-subunit SEQ … (protein)
chain: MKDILEKLEERRAQARLGGREKRLEAQHKRGKLTARERIELLLDHGSFEEFDMFVQHRSTDFGMEKQKIPGDGVVTGWGTVNGRTVFLFSKDFTVFGGSSSEAHAAKIVKVQDMALKMRAPIIGIFDAGGARIQEGVAALGGHGEVFRRNVAASGVIPQISVIMGPCAGGDVYSPAMTDFIFMVRDTSYMFVTGPDVVKTVTNEVVTAEELGGAKVHTSKSSIADGSFENDVEAILQIRRLLDFLPANNIEGVPEIESFDDVNRLDKSLDTLIPDNPNKPYDMGELIRRVVDEGDFFEIQAAYARNIITGFGRVEGRTVGFVANQPLVLAGVLDSDASRKAARFVRFCNAFSIPIVTFVDVPGFLPGTAQEYGGLIKHGAKLLFAYSQATVPLVTIITRKAFGGAYIVMASKHVGADLNYAWPTAQIAVMGAKGAVEIIFRAEIGDADKVAERTKEYEDRFLSPFVAAERGYIDEVIMPHSTRKRIARALGMLRTKEMEQPRKKHDNIPL
notes: overexpressed in E. coli BL21-birA with M. extorquens biotin ligase
On to B2, for which, in series [4], the Michaelis-Menten constant (Km) is given as 0.38 ± 0.10 mM, the Vmax was 2.25 µmol/min/mg, the kcat was determined as 4.9 ± 0.4 s⁻¹ and the kcat/Km was found to be 13000 M⁻¹ s⁻¹. In series [5], the Km was 0.27 ± 0.02 mM, the Vmax was 4.52 µmol/min/mg, the kcat amounted to 9.8 ± 0.2 s⁻¹ and the kcat/Km stood at 36400 M⁻¹ s⁻¹.

B3: Glycolyl-CoA Carboxylase GCC M5 variant S100N (= L100N; Methylorubrum extorquens propionyl-CoA carboxylase variant L100N, Y143H, D407I, I450V, W502R; β-subunit … (protein)
chain: MKDILEKLEERRAQARLGGGEKRLEAQHKRGKLTARERIELLLDHGSFEEFDMFVQHRSTDFGMEKQKIPGDGVVTGWGTVNGRTVFLFSKDFTVFGGSNSEAHAAKIVKVQDMALKMRAPIIGIFDAGGARIQEGVAALGGHGEVFRRNVAASGVIPQISVIMGPCAGGDVYSPAMTDFIFMVRDTSYMFVTGPDVVKTVTNEVVTAEELGGAKVHTSKSSIADGSFENDVEAILQIRRLLDFLPANNIEGVPEIESFDDVNRLDKSLDTLIPDNPNKPYDMGELIRRVVDEGDFFEIQAAYARNIITGFGRVEGRTVGFVANQPLVLAGVLDSDASRKAARFVRFCNAFSIPIVTFVDVPGFLPGTAQEYGGLIKHGAKLLFAYSQATVPLVTIITRKAFGGAYIVMASKHVGADLNYAWPTAQIAVMGAKGAVEIIFRAEIGDADKVAERTKEYEDRFLSPFVAAERGYIDEVIMPHSTRKRIARALGMLRTKEMEQPRKKHDNIPL
notes: as for B2
B3: in series [6], the Michaelis constant (Km) was determined as 0.63 ± 0.10 mM, the Vmax was 0.174 µmol/min/mg, the kcat was determined as 0.38 ± 0.03 s⁻¹ and the kcat/Km came to 596 M⁻¹ s⁻¹. For the same molecule, in series [7], the Km came to 0.32 ± 0.05 mM, the Vmax was 0.79 µmol/min/mg, the kcat amounted to 1.7 ± 0.1 s⁻¹ and the kcat/Km worked out at 5360 M⁻¹ s⁻¹.

What is called Km is the substrate concentration at which the rate is half of its maximum. For orientation: Vmax means the top rate of the reaction or transport when substrate is in excess. In general, kcat/KM refers to the second-order rate constant that governs catalysis at low substrate concentration. In general, kcat/Km refers to the turnover number divided by the Michaelis constant.
